In patent US20260078196A1 (TJ BIOPHARMA SHANGHAI, published 2026):
Read-outs that look alike come from different tables or passages of the source.

T1: HEK293-MUC16 (13810-14507) (human, UniProt Q8WXI7 13810-14507)
T1 construct: range 13810-14507; also called MUC16 overexpressed HEK293 cells
T1 sequence: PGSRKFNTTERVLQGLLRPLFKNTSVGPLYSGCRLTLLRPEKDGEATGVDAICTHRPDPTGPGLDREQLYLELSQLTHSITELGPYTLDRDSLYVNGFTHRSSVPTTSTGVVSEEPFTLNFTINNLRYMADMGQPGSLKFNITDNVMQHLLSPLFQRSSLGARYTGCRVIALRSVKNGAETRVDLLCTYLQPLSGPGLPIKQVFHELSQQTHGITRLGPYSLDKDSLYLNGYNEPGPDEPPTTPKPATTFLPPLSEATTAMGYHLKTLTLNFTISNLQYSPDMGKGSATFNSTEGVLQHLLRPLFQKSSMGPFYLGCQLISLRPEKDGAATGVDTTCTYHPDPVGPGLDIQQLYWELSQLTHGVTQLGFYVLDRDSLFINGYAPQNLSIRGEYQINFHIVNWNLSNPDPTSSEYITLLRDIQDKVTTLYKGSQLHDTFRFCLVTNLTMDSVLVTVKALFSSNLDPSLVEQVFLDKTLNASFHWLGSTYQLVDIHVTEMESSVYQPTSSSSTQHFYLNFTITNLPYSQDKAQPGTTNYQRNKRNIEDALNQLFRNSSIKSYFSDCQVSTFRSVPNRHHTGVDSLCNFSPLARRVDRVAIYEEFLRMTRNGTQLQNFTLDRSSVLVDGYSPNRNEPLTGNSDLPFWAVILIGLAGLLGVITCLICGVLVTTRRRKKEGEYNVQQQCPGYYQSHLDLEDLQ

T2: huMUC16, AA14198-14507
T2 chain: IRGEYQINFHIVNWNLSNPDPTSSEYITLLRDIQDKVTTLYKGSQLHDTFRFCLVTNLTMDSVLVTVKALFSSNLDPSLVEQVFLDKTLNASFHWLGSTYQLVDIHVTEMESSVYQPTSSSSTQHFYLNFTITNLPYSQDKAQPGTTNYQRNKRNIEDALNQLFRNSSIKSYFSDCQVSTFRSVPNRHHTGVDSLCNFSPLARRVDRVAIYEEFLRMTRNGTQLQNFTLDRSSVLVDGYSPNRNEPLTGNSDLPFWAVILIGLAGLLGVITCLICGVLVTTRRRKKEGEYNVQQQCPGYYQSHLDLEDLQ

T3: huMUC16, AA13789-14451
T3 construct: also called MUC16 Antigen (human MUC16 AA13789-14451)
T3 chain: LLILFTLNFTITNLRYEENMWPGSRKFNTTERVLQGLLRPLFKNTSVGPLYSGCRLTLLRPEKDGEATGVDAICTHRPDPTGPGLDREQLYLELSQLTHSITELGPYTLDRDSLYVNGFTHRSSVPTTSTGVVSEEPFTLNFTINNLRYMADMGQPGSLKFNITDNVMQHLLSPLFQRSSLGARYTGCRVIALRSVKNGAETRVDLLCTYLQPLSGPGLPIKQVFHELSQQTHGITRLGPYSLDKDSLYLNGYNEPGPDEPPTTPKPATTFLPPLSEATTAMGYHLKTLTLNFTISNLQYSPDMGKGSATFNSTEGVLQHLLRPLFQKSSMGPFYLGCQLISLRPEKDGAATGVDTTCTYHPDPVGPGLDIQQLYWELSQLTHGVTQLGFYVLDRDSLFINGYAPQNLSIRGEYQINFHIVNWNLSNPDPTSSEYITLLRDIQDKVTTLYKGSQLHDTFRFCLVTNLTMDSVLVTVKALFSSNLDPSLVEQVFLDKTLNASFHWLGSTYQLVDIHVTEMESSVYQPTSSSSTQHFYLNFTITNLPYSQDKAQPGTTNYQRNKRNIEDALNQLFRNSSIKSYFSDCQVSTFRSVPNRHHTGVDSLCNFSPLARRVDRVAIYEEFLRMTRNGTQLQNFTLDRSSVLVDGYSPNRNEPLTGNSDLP


Tests used:
[1] = target: T1, HEK293-MUC16 (13810-14507); assay: flow cytometry (MFI GeoMean) on HEK293-MUC16 (13810-14507) cells, nM is the unit of the x axis Log10[Ab] (nM)
human MUC16 on cells [2] = target: T4, human MUC16 on cells (human, UniProt Q8WXI7 1-14507); assay: flow cytometry (MFI GeoMean) on SNU216 cells, nM is the unit of the x axis Log10[Ab] (nM)
T4 construct: whole, on cells; also called huMUC16; MUC16 on OVCAR3 and SNU216 cells

huMUC16, AA14198-14507 = target: T2, huMUC16, AA14198-14507; assay: binding ELISA on huMUC16 AA14198-14507
human MUC16 on cells [3] = target: T4, human MUC16 on cells; assay: flow cytometry (GMFI) on OVCAR3 cells, nM is the unit of the x axis Log10[Ab] (nM)
human MUC16 on cells [4] = target: T4, human MUC16 on cells; assay: flow cytometry (MFI GeoMean) on OVCAR3 cells, nM is the unit of the x axis Log10[Ab] (nM)
huMUC16, AA13789-14451 = target: T3, huMUC16, AA13789-14451; assay: binding ELISA on huMUC16 AA13789-14451
human MUC16 on cells [5] = target: T4, human MUC16 on cells; assay: flow cytometry (GMFI) on OVCAR3 cells, nM is the unit of the x axis Log10[Ab] (nM); curve without upper plateau
ROR1 on cells [6] = target: T5, ROR1 on cells (UniProt Q01973 30-937); assay: flow cytometry (gMFI) on A549 cells
T5 construct: whole, on cells; also called ROR1 endogenous expressed tumor cell A549; ROR1-positive tumor cell lines

ROR1 on cells [7] = target: T5, ROR1 on cells; assay: flow cytometry (gMFI) on A549 cells; remark: listed apart in the source
human MUC16 = target: T6, human MUC16 (human); assay: binding kinetics, sensorgrams in RU in FIG. 14B, model printed: Kinetics 1:1; form of the MUC16 antigen not given
T6 construct: also called MUC16 antigen of the kinetic assay

human MUC16 on cells [8] = target: T4, human MUC16 on cells; assay: flow cytometry (GMFI) on OVCAR3 cells, nM is the unit of the x axis Log10[Ab] (nM); curve without upper plateau; remark: listed apart in the source

| Binder | EC50 [1] [nM] | EC50 (human MUC16 on cells [2]) [nM] | binding result (huMUC16, AA14198-14507) | EC50 (human MUC16 on cells [3]) [nM] | EC50 (human MUC16 on cells [4]) [nM] | binding result (huMUC16, AA13789-14451) | EC50 (human MUC16 on cells [5]) [nM] | other results |
| --- | --- | --- | --- | --- | --- | --- | --- | --- |
| D100 (antibody, V domains shown, Anti-MUC16 mAb; also called MUC16-D100) VH: QVQLVQSGAEVKKPGSSVKVSCKASGGTFSRYHAISWVRQAPGQGLEWMGGIIPILGTANYAQKFQGRVTITADESTSTAYMELSSLRSEDTAVYYCASGTTAARYYYYYYYMDVWGKGTTVTVSS VL: NIQMTQSPSSLSASVGDRVTITCQASQDISNYLNWFHQKPGKAPNLLIYDASNLETGVPSRFSGSGSGTDFTFTISSLQPEDIGTYYCQQYDNLPLTFGGGTKVDIK | 0.0874 | 0.12 | no binding (tested: 100 nM) | 0.395 | 0.286 | binds | – | – |
| B195 (antibody, V domains shown, Anti-MUC16 mAb) VH: EVQLVQSGAEVKKPGASVKVSCKASGGTFSSYAISWVRQAPGQGLEWMGGIIPIFGTANYAQKFQGRVTITADESTSTAYMELSSLRSEDTAVYYCAREGPDYGDYSWSMDYYYGMDVWGQGTMVTVSS VL: EIVMTQSPGTLSLSPGERATLSCRASQSVNSRYLAWYQHKPGQAPRLLMYGASTRATGIPDRFSGSGSGTDFTLTISRLEPEDFAVYYCQQYGTFSITFGQGTRLEIK | – | – | no binding (tested: 100 nM) | – | – | binds | 15.1 | – |
| 8F2 (antibody, V domains shown, Anti-ROR1 mAb (chimeric section 9.1); also called anti-ROR1 mAb 8F2) VH: EVQLQQSGPELVKPGASVKMSCKASGYTFTTYVMHWVKQKPGQGLEWIGYINPYNGGIRYNEKFKGKATLTSDKSSSTAYMELSSLTSEDSAVYYCARRERGVYYGMDEWGQGTSVTVSS VL: DVVMTQTPLTLSVTIGQPASISCKSSQSLLHSNGKTYLNWLLQRPGQSPNLLIYLVSKLESGVPDRFSGSGSGTDFTLKISRVEAEDLGVYYCLQATYFPYTFGSGTKLEIK | – | – | – | – | – | – | – | EC50 (read off the curve) (ROR1 on cells [6]): ~0.02 nM |
| 3C5 (antibody, V domains shown, Anti-ROR1 mAb (chimeric section 9.1); also called anti-ROR1 mAb 3C5) VH: EVKLVESGGGLVKPGGSLKLSCAASGFTFSSYAMSWVRQTPEKRLEWVSSISSGGTTYYPDTVKGRFTISRDNARNILYLQMSSLRSEDTAMYYCARDSLYYGSSLYYAMDYWGQGTSVTVSS VL: DIKMTQSPSSMYASLGERVSITCRASQDIYSYLSWFQQKPGKSPKTLIYRANRLVDGVPSRFSGSGSGQDYSLTISSLEYEDMGIYYCLQYDEFPYTFGGGTKLEIK | – | – | – | – | – | – | – | EC50 (read off the curve) (ROR1 on cells [7]): ~0.04 nM |
| D57 (antibody, V domains shown, Anti-MUC16 mAb; also called MUC16-D57) VH: EVQLLESGGGLVTPGGSLRLSCTASGFTFSDYYLSWVRQAPGKGLEWMGGIIPIFGTANYAQKFQGRVTITADESTSTAYMELSSLRSEDTAVYYCARGGPHYDFWSGYTPGQHGGAFDIWGQGTMVTVSS VL: EIVLTQSPGTLSLSPGERATLSCRASQSVSSSYLAWYQQKPGQAPRLLIYGASSRATGIPDRFSGSGSGTDFTLTISRLEPEDFAVYYCQQRSNWRNTFGQGTRLEIK | 0.579 | 1.24 | – | 0.526 | 0.763 | – | – | Kd (human MUC16): 5.26 nM; koff (human MUC16): 0.0035 s⁻¹ |
| B76 (antibody, V domains shown, Anti-MUC16 mAb) VH: QMQLVQSGAEVKKPGSSVKVSCKASGGTFSSYAISWVRQAPGQGLEWMGGIIPIFGTANYAQKFQGRVTITADESTSTAYMELSSLRSEDTAVYYCARSITDYYDSSGYYFRPHFNTGYYYGMDVWGQGTTVTVSS VL: NIQLTQSPSSLSASVGDRVTITCRASQGINNYLAWYQQKPGKVPKLLIYAASTLQSGVPSRFSGSGSGTDFTLTITNLQPDDFATYYCQQYDTFSETFGPGTKVEIK | – | – | no binding (tested: 100 nM) | – | – | binds | 16.8 | – |
| B218 (antibody, V domains shown, Anti-MUC16 mAb; also called MUC16-B218) VH: EVQLLESGAEVKKPGSSVKVSCKASGGTFSSYAISWVRQAPGQGLEWMGGIIPIFGTANYAQKFQGRVTITADESTSTAYMELSSLRSEDTAVYYCARGGPHYDFWSGYTPGQHGGAFDIWGQGTMVTVSS VL: NIQMTQSPSTLSASLGDRVSITCRASQSISGWLAWYQQKPGKAPKLLIYRTSYLESGVPSRFSAGGSGTEFTLTISSLQPDDFATYYCQHYDTFSRAFGQGTKVDIK | 0.244 | 0.76 | no binding (tested: 100 nM) | 0.687 | 0.907 | binds | – | Kd (human MUC16): 6.17 nM; koff (human MUC16): 0.0031 s⁻¹; kon (human MUC16): 502000 M⁻¹ s⁻¹ |
| humanized 3C5 anti-ROR1 mAb (antibody, V domains shown, also called h3C5; h3C5-PTM) VH: EVQLVESGGGLVKPGGSLRLSCAASGFTFSSYAMSWVRQAPGKRLEWVSSISSGGTTYYPDTVKGRFTISRDNAKNSLYLQMNSLRAEDTAVYYCARDALYYGSSLYYAMDYWGQGTLVTVSS VL: DIQMTQSPSSLSASVGDRVTITCRASQDIYSYLSWFQQKPGKAPKTLIYRANRLVDAVPSRFSGSGSGQDYTLTISSLQPEDFATYYCLQYDEFPYTFGQGTKLEIK | – | – | – | – | – | – | – | EC50 (read off the curve) (ROR1 on cells [7]): ~0.04 nM |

More lines, main results first:

| EC50 [1] [nM] | EC50 (human MUC16 on cells [2]) [nM] | binding result (huMUC16, AA14198-14507) | EC50 (human MUC16 on cells [3]) [nM] | EC50 (human MUC16 on cells [4]) [nM] | binding result (huMUC16, AA13789-14451) | EC50 (human MUC16 on cells [5]) [nM] | Binder | other results |
| --- | --- | --- | --- | --- | --- | --- | --- | --- |
| – | – | no binding (tested: 100 nM) | – | – | binds | – | D41 (antibody, V domains shown, Anti-MUC16 mAb) VH: EVQLLESGGGLVQPGGSLRLSCAASGFTFSSYEMNWVRQAPGKGLEWVGRIKSKTDGGTTDYAAPVKGRFTISRDDSKNTLYLQMNSLKTEDTAVYYCTTDLAAVAGLFDYWGQGTTVTVSS VL: DIQLTQSPSSLSASVGDRVTITCQASQDISNYLNWYQQKPGKAPKLLIYDASNLETGVPSRFSGSGSGTDFTLTISSLQPEDFATYYCQQSYSTPWKFGQGTKVEIK | EC50 (human MUC16 on cells [8]): 23.1 nM |
| – | – | no binding (tested: 100 nM) | – | – | binds | 40.6 | D79 (antibody, V domains shown, Anti-MUC16 mAb) VH: QMQLVQSGAEVKKPGSSVKVSCKASGGTFSSYAISWVRQAPGQGLEWMGGIIPIFGTANYAQKFQGRVTITADESTSTAYMELSSLRSEDTAVYYCARDSGSSITMVRGGDYYYMDVWGKGTTVTVSS VL: not shown | – |
